Experimental findings from patent publication US9566335 are described below.

Experiment [1] concerns the target biotinylated peptide X-…(biotin), X = Y. Put plainly: phage ELISA, biotinylated peptide on neutravidin; phage 10×.
Experiment [2] addresses biotinylated peptide X-…(biotin), X = F. Described as above.
Experiment [3] concerns the target biotinylated peptide X-…(biotin), X = Y. Put plainly: phage ELISA, biotinylated peptide on neutravidin.
Experiment [4] has as its target biotinylated peptide X-…(biotin), X = F. Put plainly: phage ELISA, biotinylated peptide on neutravidin. (In general: ELISA stands for enzyme-linked immunosorbent assay.)

On to “Phage displayed wild-type E. coli ClpS (truncated wildtype ClpS polypeptide, FLAG-tagged, fused to phage coat protein p3) (from UniProt A7ZJU9 23-106)”, for which the phage ELISA signal (A450) worked out at 1.08 in experiment [1], 1.81 in experiment [2], 1.08 in experiment [3] and 1.81 in experiment [4].
